The assay deals with TLR4 human recombinant protein (HY-P73586, MCE) (human) (UniProt O00206). The assay is described as follows: SPR.
UniProt O00206, sequence (O00206 24-631, one chain of several): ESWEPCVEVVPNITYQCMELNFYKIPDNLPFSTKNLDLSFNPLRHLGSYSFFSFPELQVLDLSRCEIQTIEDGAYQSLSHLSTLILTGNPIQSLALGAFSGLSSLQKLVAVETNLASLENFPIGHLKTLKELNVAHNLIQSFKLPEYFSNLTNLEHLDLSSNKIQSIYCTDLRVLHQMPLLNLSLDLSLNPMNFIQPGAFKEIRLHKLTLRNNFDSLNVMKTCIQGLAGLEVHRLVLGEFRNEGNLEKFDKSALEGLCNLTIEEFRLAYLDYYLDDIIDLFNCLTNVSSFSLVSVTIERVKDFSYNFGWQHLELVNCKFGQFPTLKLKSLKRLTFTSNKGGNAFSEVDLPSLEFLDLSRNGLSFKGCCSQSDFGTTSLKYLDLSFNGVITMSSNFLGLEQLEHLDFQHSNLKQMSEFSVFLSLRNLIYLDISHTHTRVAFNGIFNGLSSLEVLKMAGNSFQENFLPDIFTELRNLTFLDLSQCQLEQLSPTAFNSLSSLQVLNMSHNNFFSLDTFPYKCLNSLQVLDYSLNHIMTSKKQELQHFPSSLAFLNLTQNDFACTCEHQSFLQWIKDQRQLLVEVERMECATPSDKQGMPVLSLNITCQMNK

For the substance “PBP1B without the GST tag, non-transmembrane domain (domain or fragment)”, the Kd (usually the concentration at which binding is half-saturated) was determined as 0.269 nM.
